In US20110044985A1:
Where a chain is given by its changes, count along the chain named. Names and notes keep the numbering of the source.

B1: 6G heavy chain mutant variant 7D (N101C) (antibody, V domains shown)
VH: QVQLVQSGAEVKKPGASVKVSCKASGYTFTTYAIHWVRQAPGQGLEWMGFTSPYSGVSNYNQKFKGRVTMTRDTSTSTVYMELSSLRSEDTAVYYCARFDCYDRGYVRDYWGQGTLVTVS
VL: DIVMTQSPDSLAVSLGERATINCRASESVDNDRISFLNWYQQKPGQPPKLLIYAATKQGTGVPDRFSGSGSGTDFTLTISSLQAEDVAVYYCQQSKEFPWSFGGGTKVEIKR
B2: 6G heavy chain mutant variant 9E (N101R) (antibody, V domains shown)
VH: B1 VH with C101R
VL: B1 VL

Target: Aβ1-40
Sequence (peptide, as listed by the source): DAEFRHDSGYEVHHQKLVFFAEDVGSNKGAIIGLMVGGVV
Assay: ELISA, nonbiotinylated peptide on plate

Binder	A450 ELISA
B1	0.23 A450
B2	0.22 A450
